This note sets out measurements from patent US20250171534A1 (D2M BIOTHERAPEUTICS, published 2025).

One may read the EC50 as the concentration at which the effect is half-maximal. One may read the EC50 (read off the curve) as the concentration needed to bring the measured effect to its halfway point. A high value points to weaker potency. The Kd is the free concentration of one partner at which half of the binding sites on the other are occupied at equilibrium, for simple one-to-one binding. As usually defined, the IC50 is the concentration needed to halve the response being measured. Higher therefore signals lower potency. As usually defined, the koff is the rate constant with which the complex falls apart. Higher therefore signals fast dissociation. One may read the kon as a measure of how fast the partners come together. Low values mean slower complex formation, high ones faster complex formation.

In experiment [1] the target is T1, LILRB1-ECD-HIS (SinoBiological Cat #: 16014-H02H) (human, UniProt Q8NHL6 24-461).
T1 construct: Bought protein; also called monomeric antigen LILRB1-ECD-HIS; not shown: His tag
In words: BLI epitope binning (Gator), monomeric antigen.

Experiment [2] concerns the target T2, LILRB2-ECD-HIS (SinoBiological Cat #: 14132-H02H) (human, UniProt Q8N423 22-460).
T2 construct: Bought protein; also called monomeric antigen LILRB2-ECD-HIS; not shown: His tag
The experiment can be described thus: BLI epitope binning (Gator), monomeric antigen.

In experiment [3] the target is T3, human LILRB2 expressed on cells (human, UniProt Q8N423 22-597).
T3 construct: In 293T cells it was expressed from pCMV3-LILRB2-GFP; also called CHO-LILRB2; Jurkat-LILRB2
In words: flow cytometry, CHO-LILRB2 cells.

Experiment [4] has as its target T4, human LILRB1 expressed on cells (human, UniProt Q8NHL6 24-650).
T4 construct: In 293T cells it was expressed from pCMV3-LILRB1-GFP; also called CHO-LILRB1; Jurkat-LILRB1
The experiment can be described thus: flow cytometry, CHO-LILRB1 cells. (A flow cytometer gives signals particle by particle.)

Experiment [5] addresses T4, human LILRB1 expressed on cells. In words: flow cytometry, CHO-LILRB1 cells. The source holds these as a separate data set.
Experiment [6] addresses T1, LILRB1-ECD-HIS (SinoBiological Cat #: …). The experiment can be described thus: SPR (Carterra LSA), antibody captured, antigen injected.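 Note: kd obtained from kinetic analysis of antibody binding to the antigen, with association and dissociation phases fitted in the instrument software.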
Experiment [7] addresses T2, LILRB2-ECD-HIS (SinoBiological Cat #: …). The description is as above.
Experiment [8] concerns the target T3, human LILRB2 expressed on cells. In words: flow cytometry on CHO-LILRB2 cells (CHO-RB2), titrated antibody, labelled anti-human Fc, gMFI.
Experiment [9] has as its target T5, LILRA1 expressed on cells (human, UniProt O75019 17-489).
T5 construct: whole, on cells; GFP-tagged; also called human LILRA1; CHO-LILRA1
The experiment can be described thus: flow cytometry on CHO-LILRA1 cells (CHO-RA1), titrated antibody, labelled anti-human Fc, gMFI.

The target of experiment [10] is T4, human LILRB1 expressed on cells. In words: flow cytometry, Jurkat-LILRB1 cells; blocked ligand: APC HLA-G trimer tetramer.
Experiment [11] shares this target. The experiment can be described thus: flow cytometry on CHO-LILRB1 cells, non-linear fit of the curves of FIG. 26A.
For experiment [12] the target is unchanged. In words: flow cytometry, Jurkat-LILRB1 cells.
Experiment [13] addresses T5, LILRA1 expressed on cells. In words: flow cytometry on CHO-LILRA1 cells, non-linear fit of the curves of FIG. 26E.
Experiment [14] concerns the target T6, LILRA2 expressed on 293T cells (UniProt Q8N149 24-483, limits assumed).
T6 construct: whole, on cells; GFP-tagged, transient
In words: flow cytometry on 293T cells transiently expressing LILRA2, APC anti-human Fc; gMFI as fold to IgG staining.

The target of experiment [15] is T7, LILRB4 expressed on 293T cells (UniProt Q8NHJ6 22-448, limits assumed).
T7 construct: whole, on cells; GFP-tagged, transient
The experiment can be described thus: flow cytometry on 293T cells transiently expressing LILRB4, APC anti-human Fc; gMFI as fold to IgG staining.

The target of experiment [16] is T8, LILRA5 expressed on 293T cells (UniProt A6NI73 42-299, limits assumed).
T8 construct: whole, on cells; GFP-tagged, transient
The experiment can be described thus: flow cytometry on 293T cells transiently expressing LILRA5, antibody 5 µg/mL, APC anti-human Fc; gMFI as fold to IgG staining.

Experiment [17] has as its target T9, LILRB5 expressed on 293T cells (UniProt O75023 24-590, limits assumed).
T9 construct: whole, on cells; GFP-tagged, transient
In words: flow cytometry on 293T cells transiently expressing LILRB5, APC anti-human Fc; gMFI as fold to IgG staining.

Experiment [18] deals with T1, LILRB1-ECD-HIS (SinoBiological Cat #: …). The experiment can be described thus: BLI (Gator), RB1-ECD-his.
Experiment [19] has as its target T2, LILRB2-ECD-HIS (SinoBiological Cat #: …). In words: SPR (Carterra), LILRB2-ECD-his.
In experiment [20] the target is T1, LILRB1-ECD-HIS (SinoBiological Cat #: …). The experiment can be described thus: SPR (Carterra), LILRB1-ECD-his.
In experiment [21] the target is T3, human LILRB2 expressed on cells. In words: flow cytometry on CHO-LILRB2 cells, non-linear fit of the curves of FIG. 26B.
Experiment [22] addresses T10, LILRB3 expressed on cells (human, UniProt O75022 24-631).
T10 construct: whole, on cells; Expressed with a GFP tag from the bought plasmid; also called human LILRB3; CHO-LILRB3
The experiment can be described thus: flow cytometry on 293T cells transiently expressing LILRB3, APC anti-human Fc; gMFI as fold to IgG staining.

In experiment [23] the target is T4, human LILRB1 expressed on cells. In words: flow cytometry, CHO-LILRB1 cells. The source holds these as a separate data set.
In experiment [24] the target is T11, LILRA4 expressed on 293T cells (UniProt P59901 24-499, limits assumed).
T11 construct: whole, on cells; GFP-tagged, transient
In words: flow cytometry on 293T cells transiently expressing LILRA4, APC anti-human Fc; gMFI as fold to IgG staining.

In experiment [25] the target is T3, human LILRB2 expressed on cells. In words: flow cytometry, Jurkat-LILRB2 cells.
Experiment [26] has as its target T4, human LILRB1 expressed on cells. In words: flow cytometry on CHO-LILRB1 cells (CHO-RB1), titrated antibody, labelled anti-human Fc, gMFI.
In experiment [27] the target is T12, LILRA6 expressed on cells (human, UniProt Q6PI73 24-481).
T12 construct: whole, on cells; GFP-tagged; also called human LILRA6; CHO-LILRA6
In words: flow cytometry on 293T cells transiently expressing LILRA6, APC anti-human Fc; gMFI as fold to IgG staining.

Experiment [28] deals with T13, LILRA3 expressed on 293T cells (UniProt Q8N6C8 24-439, limits assumed).
T13 construct: whole, on cells; GFP-tagged, transient
The experiment can be described thus: flow cytometry on 293T cells transiently expressing LILRA3, APC anti-human Fc; gMFI as fold to IgG staining.

Experiment [29] concerns the target T2, LILRB2-ECD-HIS (SinoBiological Cat #: …). The experiment can be described thus: BLI (Gator), RB2-ECD-his.
In experiment [30] the target is T4, human LILRB1 expressed on cells. The experiment can be described thus: flow cytometry, CHO-LILRB1 cells; blocked ligand: APC HLA-G trimer tetramer.
For experiment [31], the target named is T3, human LILRB2 expressed on cells. The experiment can be described thus: flow cytometry, Jurkat-LILRB2 cells; blocked ligand: APC HLA-G monomer tetramer.

T5 sequence (O75019 17-489): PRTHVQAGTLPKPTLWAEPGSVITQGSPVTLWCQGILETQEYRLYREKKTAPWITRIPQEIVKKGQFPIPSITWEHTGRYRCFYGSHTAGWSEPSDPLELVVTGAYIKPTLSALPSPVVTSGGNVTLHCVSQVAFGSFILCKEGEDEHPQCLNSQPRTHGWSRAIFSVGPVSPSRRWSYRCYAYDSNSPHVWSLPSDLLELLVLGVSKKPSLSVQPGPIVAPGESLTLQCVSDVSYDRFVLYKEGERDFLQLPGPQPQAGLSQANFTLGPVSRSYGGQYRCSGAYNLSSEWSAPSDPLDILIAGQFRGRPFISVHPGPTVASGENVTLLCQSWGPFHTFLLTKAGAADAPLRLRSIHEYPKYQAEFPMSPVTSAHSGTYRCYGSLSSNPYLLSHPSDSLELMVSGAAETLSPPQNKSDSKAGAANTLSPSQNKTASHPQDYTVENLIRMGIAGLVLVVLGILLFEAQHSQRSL
T4 sequence (Q8NHL6 other isoform, or with tags, fused parts or gaps limits assumed): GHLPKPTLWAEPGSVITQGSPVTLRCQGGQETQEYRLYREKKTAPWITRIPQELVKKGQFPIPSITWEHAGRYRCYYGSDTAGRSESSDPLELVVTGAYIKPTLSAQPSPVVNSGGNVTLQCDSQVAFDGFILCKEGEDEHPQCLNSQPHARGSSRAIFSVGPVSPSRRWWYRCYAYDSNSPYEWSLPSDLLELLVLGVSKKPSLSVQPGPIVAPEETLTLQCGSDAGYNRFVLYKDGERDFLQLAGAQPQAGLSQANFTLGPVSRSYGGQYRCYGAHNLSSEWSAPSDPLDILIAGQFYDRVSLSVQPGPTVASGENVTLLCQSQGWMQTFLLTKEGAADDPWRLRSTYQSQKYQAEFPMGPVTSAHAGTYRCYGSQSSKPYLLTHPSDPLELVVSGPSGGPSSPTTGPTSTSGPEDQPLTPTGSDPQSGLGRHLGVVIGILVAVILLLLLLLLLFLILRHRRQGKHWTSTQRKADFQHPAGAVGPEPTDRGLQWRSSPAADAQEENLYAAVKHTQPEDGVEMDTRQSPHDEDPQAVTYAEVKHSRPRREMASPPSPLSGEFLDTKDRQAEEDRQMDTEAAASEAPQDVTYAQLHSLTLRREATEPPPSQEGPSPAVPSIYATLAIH
T2 sequence (Q8N423 other isoform, or with tags, fused parts or gaps H02H H02H): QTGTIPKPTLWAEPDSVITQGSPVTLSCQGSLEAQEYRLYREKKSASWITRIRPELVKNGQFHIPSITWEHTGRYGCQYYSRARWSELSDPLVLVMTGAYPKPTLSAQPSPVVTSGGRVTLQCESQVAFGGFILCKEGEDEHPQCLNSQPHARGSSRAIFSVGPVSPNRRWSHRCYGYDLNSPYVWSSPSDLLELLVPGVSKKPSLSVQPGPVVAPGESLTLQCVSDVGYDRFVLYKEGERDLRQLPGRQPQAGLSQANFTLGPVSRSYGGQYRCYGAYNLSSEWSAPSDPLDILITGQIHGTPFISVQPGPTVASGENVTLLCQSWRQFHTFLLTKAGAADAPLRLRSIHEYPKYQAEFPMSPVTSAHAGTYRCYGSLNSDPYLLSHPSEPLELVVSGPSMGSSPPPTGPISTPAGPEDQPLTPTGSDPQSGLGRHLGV
T1 sequence (Q8NHL6 other isoform, or with tags, fused parts or gaps H02H H02H): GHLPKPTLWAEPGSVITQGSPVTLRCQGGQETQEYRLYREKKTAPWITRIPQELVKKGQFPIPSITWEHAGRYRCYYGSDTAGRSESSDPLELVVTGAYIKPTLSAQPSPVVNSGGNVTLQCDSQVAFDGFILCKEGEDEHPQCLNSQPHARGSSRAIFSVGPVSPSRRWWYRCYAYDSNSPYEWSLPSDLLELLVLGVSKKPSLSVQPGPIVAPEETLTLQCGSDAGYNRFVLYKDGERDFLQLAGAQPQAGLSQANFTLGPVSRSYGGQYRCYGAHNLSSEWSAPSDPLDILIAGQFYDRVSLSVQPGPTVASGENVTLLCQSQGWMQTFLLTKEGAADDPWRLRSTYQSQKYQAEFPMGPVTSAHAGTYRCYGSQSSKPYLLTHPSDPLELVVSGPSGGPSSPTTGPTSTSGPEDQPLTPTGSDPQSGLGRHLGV
T3 sequence (Q8N423 other isoform, or with tags, fused parts or gaps limits assumed): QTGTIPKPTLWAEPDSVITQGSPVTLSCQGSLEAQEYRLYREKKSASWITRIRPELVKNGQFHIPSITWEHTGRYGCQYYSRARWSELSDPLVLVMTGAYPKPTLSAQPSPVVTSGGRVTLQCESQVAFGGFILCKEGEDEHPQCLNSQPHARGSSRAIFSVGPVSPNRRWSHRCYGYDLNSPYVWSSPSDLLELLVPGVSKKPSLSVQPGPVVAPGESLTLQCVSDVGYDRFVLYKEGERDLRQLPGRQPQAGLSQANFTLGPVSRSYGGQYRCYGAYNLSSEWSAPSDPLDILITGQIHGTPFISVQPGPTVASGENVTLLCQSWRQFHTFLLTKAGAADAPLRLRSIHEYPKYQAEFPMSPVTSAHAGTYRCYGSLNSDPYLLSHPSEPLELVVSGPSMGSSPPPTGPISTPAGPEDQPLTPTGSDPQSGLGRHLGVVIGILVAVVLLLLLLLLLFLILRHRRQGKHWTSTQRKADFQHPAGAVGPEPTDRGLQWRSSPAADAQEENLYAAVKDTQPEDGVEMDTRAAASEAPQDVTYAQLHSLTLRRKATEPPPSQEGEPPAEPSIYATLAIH
T9 sequence (O75023 24-590 limits assumed): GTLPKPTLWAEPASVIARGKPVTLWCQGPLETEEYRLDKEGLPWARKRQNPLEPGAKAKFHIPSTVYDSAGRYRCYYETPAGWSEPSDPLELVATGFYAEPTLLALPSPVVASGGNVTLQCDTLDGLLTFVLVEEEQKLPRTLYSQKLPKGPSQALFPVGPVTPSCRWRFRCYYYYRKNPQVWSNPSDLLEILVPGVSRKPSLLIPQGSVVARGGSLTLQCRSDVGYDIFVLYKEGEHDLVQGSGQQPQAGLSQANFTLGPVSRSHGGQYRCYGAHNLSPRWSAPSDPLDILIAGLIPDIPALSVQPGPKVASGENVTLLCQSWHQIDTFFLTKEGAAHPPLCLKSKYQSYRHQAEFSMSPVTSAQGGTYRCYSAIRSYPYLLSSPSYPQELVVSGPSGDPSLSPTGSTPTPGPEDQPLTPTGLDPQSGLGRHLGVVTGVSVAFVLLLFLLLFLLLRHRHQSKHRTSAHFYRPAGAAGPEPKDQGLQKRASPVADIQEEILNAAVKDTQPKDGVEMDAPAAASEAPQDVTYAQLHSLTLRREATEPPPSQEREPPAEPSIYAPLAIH
T12 sequence (Q6PI73 24-481): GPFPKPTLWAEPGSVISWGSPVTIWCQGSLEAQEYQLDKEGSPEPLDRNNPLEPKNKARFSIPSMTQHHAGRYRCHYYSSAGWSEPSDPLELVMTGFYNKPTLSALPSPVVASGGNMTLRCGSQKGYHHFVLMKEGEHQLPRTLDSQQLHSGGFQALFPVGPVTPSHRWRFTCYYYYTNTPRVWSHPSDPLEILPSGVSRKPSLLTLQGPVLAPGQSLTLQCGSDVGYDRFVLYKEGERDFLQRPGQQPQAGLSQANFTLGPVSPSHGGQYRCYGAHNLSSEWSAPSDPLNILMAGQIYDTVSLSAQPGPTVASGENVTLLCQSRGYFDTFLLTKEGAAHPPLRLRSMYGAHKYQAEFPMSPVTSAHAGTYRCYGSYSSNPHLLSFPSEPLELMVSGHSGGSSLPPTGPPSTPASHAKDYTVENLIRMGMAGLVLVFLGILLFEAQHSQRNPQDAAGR
T8 sequence (A6NI73 42-299 limits assumed): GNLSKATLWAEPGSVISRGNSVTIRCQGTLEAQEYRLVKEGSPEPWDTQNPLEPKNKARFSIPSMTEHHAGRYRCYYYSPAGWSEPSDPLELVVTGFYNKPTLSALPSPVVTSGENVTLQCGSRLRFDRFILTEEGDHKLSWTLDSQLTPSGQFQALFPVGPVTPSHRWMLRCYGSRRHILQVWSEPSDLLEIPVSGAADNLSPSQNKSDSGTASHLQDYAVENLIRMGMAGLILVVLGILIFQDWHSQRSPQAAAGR
T13 sequence (Q8N6C8 24-439 limits assumed): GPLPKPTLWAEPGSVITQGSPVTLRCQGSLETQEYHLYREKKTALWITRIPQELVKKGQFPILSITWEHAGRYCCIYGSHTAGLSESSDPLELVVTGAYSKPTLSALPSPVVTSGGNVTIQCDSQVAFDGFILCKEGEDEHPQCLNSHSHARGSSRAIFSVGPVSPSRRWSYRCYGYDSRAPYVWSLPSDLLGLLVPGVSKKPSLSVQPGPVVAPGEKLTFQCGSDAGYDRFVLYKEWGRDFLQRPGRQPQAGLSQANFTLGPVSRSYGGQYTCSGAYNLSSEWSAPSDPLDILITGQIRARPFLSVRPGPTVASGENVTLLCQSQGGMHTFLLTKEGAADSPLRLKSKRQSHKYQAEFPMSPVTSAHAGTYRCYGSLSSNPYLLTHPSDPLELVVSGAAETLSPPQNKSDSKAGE

B1: Anti-LILRB1/2 antibody Hz73D1.v1 (antibody, human IgG1, kappa, N297G, V domains shown)
VH: QVQLVQSGAEVKKPGASVKVSCKASGYTFTDYYINWVRQAPGQGLEWMGNVNPNDGGTTYNQKFKGRVTMTTDTSTSTAYMELRSLRSDDTAVYYCARREIYFYGTIYYYAMDYWGQGTLVTVSS
VL: DIQLTQSPSFLSASVGDRVTITCRASESVDYYGNSFMYWYQQKPGKAPKLLIYFASNLESGVPSRFSGSGSGTEFTLTISSLQPEDFATYYCQQNNEDPWTFGGGTKVEIKR
notes: also called NGM707
For the molecule B1, the binding result in [1] and in experiment [2] was “binds” in each case.

B2: #1 (antibody, human IgG1, V domains shown)
VH: EVQLQQSGPELVKPGASVKMSCKASGYTFTRYVMHWVKQKPGQGLEWIGYINPNNDGTKYNEKFKGKVTLTSDKSSSTAYMELSSLTSEDSAVYYCARGDLEILPYYDHARNAMDYWGQGTSVTVSS
VL: DIVMTQSPASQSASLGESVIITCRASGNIHNYLAWYQQKQGKSPQLLVYNAKTLADGVPSRFSGSGSGTQYSLKINSLQPEDFGTYYCQHFWSSPPTFGGGTKLELK
notes: also called D2M002-001
Consider B2, for which the EC50 in [3] was determined as 0.033 µg/mL; in [4], 0.093 µg/mL. In addition, the “gMFI (max)” value in experiment [3] is 16300; in [4], 26800. The “EC50 (read off the curve)” value in experiment [5] was about 0.09 µg/mL. Moreover, the Kd stood at 14700 pM in experiment [6] and 2080 pM in experiment [7].

B3: D2M002-026 (antibody, V domains shown)
VH: QVQLQQPGAELMKPGASVKISCKATGYTFSSYWIEWVKQRPGHGLEWIGEILPGDGSTNYNAKFKGQATFTADTSSNTAYMQFSSLTSEDSAVYYCARSGAGGYDSGAFAYWGQGTLVTVSS
VL: DIVLTQSPASLAVSLGQRATISCRASESVDTYGNSFMHWYQQKPGQPPKLLVYRTSNLESGIPARFSGSGSGTDFTLTINPVEADDVATYYCQQSNEDPWTFGGGTKLEIK
notes: Hit; also called clone #26
Consider B3, for which the results for the 50% effective concentration (EC50 (read off the curve)) in [8], in [9] and in experiment [26] were about 0.2 µg/mL, about 0.09 µg/mL and about 0.4 µg/mL, respectively. The values for the IC50 in [10], in experiment [30] and in experiment [31] were 0.34 µg/mL, 0.197 µg/mL and 0.023 µg/mL, respectively. Also, the EC50 in experiment [11] was 0.4 µg/mL; in [12] it was 1.94 µg/mL; in experiment [13], 0.0877 µg/mL; in [3], 2.63 µg/mL; in experiment [4], 0.818 µg/mL; in [21] it was 0.18 µg/mL. The EC50 in [23] stood at 1.02 µg/mL; in experiment [25] it was 0.106 µg/mL. Also, the MaxMFI in experiment [11] amounted to 113000; in [13], 28100; in experiment [21], 31800. Also, the “gMFI (max)” value was found to be 35500 in [3] and 43200 in [4]. Also, the binding result in experiment [14] is “no binding (tested: 5 µg/mL)”; in experiment [15], “no binding (tested: 5 µg/mL)”; in experiment [16] it was “binds”; in [17], “no binding (tested: 5 µg/mL)”; in [22], “no binding (tested: 5 µg/mL)”; in experiment [24] it was “no binding (tested: 5 µg/mL)”. The binding result in experiment [27] and in [28] was “no binding (tested: 5 µg/mL)” throughout. Also, the equilibrium dissociation constant (Kd) in experiment [18] was found to be 689 pM; in experiment [19], 60.8 pM; in experiment [20], 382 pM; in [29], 103 pM; in [6], 737 pM; in experiment [7] it was 28.6 pM. Also, the results for the off-rate (koff) in experiment [19] and in [20] were 4.53e-05 s⁻¹ and 2.79e-05 s⁻¹, respectively. The on-rate constant (kon) was 745000 M⁻¹ s⁻¹ in experiment [19] and 73100 M⁻¹ s⁻¹ in experiment [20].

B4: Anti-LILRB2 antibody J-19.H1 (antibody, human IgG4 S228P, kappa, V domains shown)
VH: QVTLKESGPGILQPSHTLSLTCSFSGFSLNTYAMGVSWIRQPSGKGLEWLASIWWNGNKYNNPSLKSRLTVSKDTSNNQAFLKVTSVDTADTATYYCAHSRIIRFTDYVMDAWGQGASVTVSS
VL: DIQMTQSPASLSTFLGEPVTIECRASEDIYNDLAWYQQKPGKSPQLLIYNANSLHTGVPSRFSGSGSGTQYSLKINSLQSEDVASYFCQQYYDYPLTFGSGTKLEIKR
notes: also called JTX-8064
As to B4, the binding result in experiment [2] was “binds”.

B5: Anti-LILRB1 antibody 15G8 (antibody, human IgG4 S228P, kappa)
heavy: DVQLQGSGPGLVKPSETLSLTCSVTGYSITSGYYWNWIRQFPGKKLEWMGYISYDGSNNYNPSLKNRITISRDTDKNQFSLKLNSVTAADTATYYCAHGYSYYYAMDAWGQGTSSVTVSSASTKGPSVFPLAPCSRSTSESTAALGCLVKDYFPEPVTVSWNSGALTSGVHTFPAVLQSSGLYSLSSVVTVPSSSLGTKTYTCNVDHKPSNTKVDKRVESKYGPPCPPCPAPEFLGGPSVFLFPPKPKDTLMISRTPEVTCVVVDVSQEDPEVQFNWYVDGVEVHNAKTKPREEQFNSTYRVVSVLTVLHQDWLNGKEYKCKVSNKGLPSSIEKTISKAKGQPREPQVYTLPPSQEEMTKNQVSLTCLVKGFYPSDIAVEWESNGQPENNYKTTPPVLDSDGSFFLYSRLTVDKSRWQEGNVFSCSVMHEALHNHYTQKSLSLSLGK
light: DIQMTQSPSSLSASVGDRVTITCRTSQDISNYLNWYQQKPGKAVKLLISYTSRLHSGVPSRFSGSGSGTDYTLTISSLQPEDFATYYCQQGNTLPTFGQGTKLEIKRTVAAPSVFIFPPSDEQLKSGTASVVCLLNNFYPREAKVQWKVDNALQSGNSQESVTEQDSKDSTYSLSSTLTLSKADYEKHKVYACEVTHQGLSSPVTKSFNRGEC
notes: also called BND-22
On to B5, for which, in experiment [1], the binding result is “binds”.
